In patent publication US20160251438A1 (LUDWIG INSTITUTE FOR CANCER RESEARCH, published 2016):
Positions count from the first letter of the chain named.

B1: MHGARP8 (antibody, V domains shown)
VH: QVQLKESGPGLVAPSQSLSITCTVSGFSLTGYGINWVRQPPGKGLEWLGMIWSDGSTDYNSVLTSRLRISKDNSNSQVFLKMNSLQVDDTARYYCARDRNYYDYDGAMDYWGQGTSVTVSS
VL: DIQVTQSSSYLSVSLGDRVTITCKASDHIKNWLAWYQQKPGIAPRLLVSGATSLEAGVPSRFSGSGSGKNFTLSITSLQTEDVATYYCQQYWSTPWTFGGGTTLEIR
notes: biotinylated for FACS; also called MHG-8
B2: LHG-10.4-D (antibody, human IgG1, V domains shown)
VH: EVQLVQPGAELRNSGASVKVSCKASGYRFTSYYIDWVRQAPGQGLEWMGRIDPEDGGTKYAQKFQGRVTFTADTSTSTAYVELSSLRSEDTAVYYCARNEWETVVVGDLMYEYEYWGQGTQVTVSS
VL: DIQMTQSPSSLSASLGDRVTITCQASQSISSYLAWYQQKPGQAPKLLIYGTSRLKTGVPSRFSGSGSGTSFTLTISGLEAEDAGTYYCQQYYSAPVTFGQGTKVELK
B3: LHG-10.4 (antibody, human IgG1, V domains shown)
VH: B2 VH
VL: B2 VL
notes: VK-shuffled variant of LHG-10, human IgG1
B4: LHG-10.5-D (antibody, human IgG1, V domains shown)
VH: B2 VH
VL: DIQMTQSPSSLSPSLGDRVTITCQASQTISSFLAWYHQKPGQPPKLLIYRASIPQTGVPSRFSGSGSGTSFTLTIGGLEAEDAGTYYCQQYVSAPPTFGQGTKVELK
B5: LHG-10.5 (antibody, human IgG1, V domains shown)
VH: B2 VH
VL: B4 VL
notes: as for B3
B6: LHG-10.6 (antibody, human IgG1, V domains shown)
VH: B2 VH
VL: B2 VL with K45N, L46I, T51A, Y92A, A94V
notes: as for B3
B7: LHG-10.3 (antibody, human IgG1, V domains shown)
VH: B2 VH
VL: B2 VL with S30V, T51A, K55Q, Y92A, K103G
notes: as for B3
B8: LHG-10-D (antibody, human IgG1, V domains shown)
VH: B2 VH
VL: B2 VL with S9T, T51A, K55Q, Y92D, A94L
B9: LHG-10.3-D (antibody, human IgG1, V domains shown)
VH: B2 VH
VL: B2 VL with S30V, T51A, K55Q, Y92A, K103G
B10: LHG-10.6-D (antibody, human IgG1, V domains shown)
VH: B2 VH
VL: B2 VL with K45N, L46I, T51A, Y92A, A94V
notes: also called LHG-10.6N297Q

target: T1, human TGF-β1 (latent) (human, UniProt P01137 30-390); test: FACS, 293T + hTGFB1 only [cont.) B]
T1 construct: from transfected hTGFB1; also called hTGF-β1; hTGFB1
T1 sequence (P01137 30-390 limits assumed): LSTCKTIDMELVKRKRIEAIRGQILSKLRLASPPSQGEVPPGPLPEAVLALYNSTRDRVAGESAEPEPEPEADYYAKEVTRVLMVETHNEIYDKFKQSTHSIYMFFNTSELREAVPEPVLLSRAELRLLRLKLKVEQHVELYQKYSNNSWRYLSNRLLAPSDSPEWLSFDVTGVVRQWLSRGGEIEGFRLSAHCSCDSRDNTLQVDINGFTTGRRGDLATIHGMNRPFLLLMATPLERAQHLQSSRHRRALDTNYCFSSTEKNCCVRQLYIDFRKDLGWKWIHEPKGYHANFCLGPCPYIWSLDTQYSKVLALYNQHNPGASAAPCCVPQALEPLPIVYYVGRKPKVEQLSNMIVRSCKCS
Source text: No latent TGF-β is detected on their surface with an anti-LAP antibody. Transfection of GARP or TGFB1 alone induces no or low surface LAP, respectively, whereas co-transfection of GARP and TGFB1 induces high surface LAP as a result of latent TGF-β1 binding and presentation by GARP (FIG. 14, part B, left histograms).

| binding result | Binder |
| --- | --- |
| no binding | B1 |

target: T2, recombinant soluble human GARP-TGFβ1 complex (human, UniProt Q14392 20-628; P01137 30-390); test: SPR (Biacore), hGARP-TGFβ1 immobilised
T2 construct: co-expressed in HEK293E, purified by the Strep-Tag; TGFβ consists of LAP and mature TGFβ; also called shGARP-TGFβ; rhGARP-TGFβ
T2 sequence (Q14392 other isoform, or with tags, fused parts or gaps limits assumed, chain 1 of 2): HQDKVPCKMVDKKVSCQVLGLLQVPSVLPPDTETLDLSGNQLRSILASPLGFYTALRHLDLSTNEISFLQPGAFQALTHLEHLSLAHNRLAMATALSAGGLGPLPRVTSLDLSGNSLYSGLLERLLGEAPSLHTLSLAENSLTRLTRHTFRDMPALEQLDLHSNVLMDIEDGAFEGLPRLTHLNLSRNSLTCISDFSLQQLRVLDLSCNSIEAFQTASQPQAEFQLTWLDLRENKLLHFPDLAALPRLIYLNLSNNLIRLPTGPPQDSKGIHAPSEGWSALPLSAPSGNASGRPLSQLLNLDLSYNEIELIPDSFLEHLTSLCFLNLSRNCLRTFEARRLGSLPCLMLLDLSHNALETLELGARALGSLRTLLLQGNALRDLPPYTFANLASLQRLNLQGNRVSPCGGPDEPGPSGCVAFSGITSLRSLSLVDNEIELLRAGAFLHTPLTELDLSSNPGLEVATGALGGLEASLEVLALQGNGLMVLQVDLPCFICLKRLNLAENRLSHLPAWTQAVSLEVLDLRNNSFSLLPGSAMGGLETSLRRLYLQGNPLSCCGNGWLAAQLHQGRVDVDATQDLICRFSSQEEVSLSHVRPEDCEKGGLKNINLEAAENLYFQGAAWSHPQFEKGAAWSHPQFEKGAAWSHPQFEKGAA
T2 sequence (P01137 30-390 limits assumed, chain 2 of 2): as the sequence (P01137 30-390 limits assumed) above

| Kd [nM] | fold improvement of KD (reference LHG-10-D) [fold] | fold improvement of ka (reference LHG-10-D) [fold] | fold improvement of kd (reference LHG-10-D) [fold] | koff [s⁻¹] | kon [M⁻¹ s⁻¹] | fold improvement of KD (reference LHG-10) [fold] | fold improvement of ka (reference LHG-10) [fold] | fold improvement of kd (reference LHG-10) [fold] | Binder |
| --- | --- | --- | --- | --- | --- | --- | --- | --- | --- |
| 0.0327 | 5.7 | 0.4 | 2.2 | 1.21e-05 | 371000 |  |  |  | B2 |
| 0.0291 |  |  |  | 1.3e-05 | 448000 | 4.5 | 0.5 | 2.4 | B3 |
| 0.028 | 6.6 | 0.4 | 2.4 | 1.07e-05 | 383000 |  |  |  | B4 |
| 0.0331 |  |  |  | 1.37e-05 | 415000 | 4 | 0.6 | 2.3 | B5 |
| 0.0159 |  |  |  | 4.4e-06 | 276000 | 8.2 | 0.9 | 7.1 | B6 |
| 0.0222 |  |  |  | 6.38e-06 | 287000 | 5.9 | 0.8 | 4.9 | B7 |
| 0.185 | 1 | 1 | 1 | 2.62e-05 | 142000 |  |  |  | B8 |
| 0.0224 | 8.3 | 0.6 | 5.1 | 5.18e-06 | 231000 |  |  |  | B9 |
| 0.0216 | 8.6 | 0.5 | 4.3 | 6.15e-06 | 284000 |  |  |  | B10 |
